This is an account of results in paper PMC8699698, “Oligomeric States and Hydrodynamic Properties of Lysyl Oxidase-Like 2” (Biomolecules, 2021).

Several values for one entry are separate records, joined by “and”; a condition that tells them apart may be missing. Equal values may be shown once.

Series [1] deals with T1, full-length lysyl oxidase-like 2 (fl-LOXL2), wild type, Q9Y4K0.
T1 chain: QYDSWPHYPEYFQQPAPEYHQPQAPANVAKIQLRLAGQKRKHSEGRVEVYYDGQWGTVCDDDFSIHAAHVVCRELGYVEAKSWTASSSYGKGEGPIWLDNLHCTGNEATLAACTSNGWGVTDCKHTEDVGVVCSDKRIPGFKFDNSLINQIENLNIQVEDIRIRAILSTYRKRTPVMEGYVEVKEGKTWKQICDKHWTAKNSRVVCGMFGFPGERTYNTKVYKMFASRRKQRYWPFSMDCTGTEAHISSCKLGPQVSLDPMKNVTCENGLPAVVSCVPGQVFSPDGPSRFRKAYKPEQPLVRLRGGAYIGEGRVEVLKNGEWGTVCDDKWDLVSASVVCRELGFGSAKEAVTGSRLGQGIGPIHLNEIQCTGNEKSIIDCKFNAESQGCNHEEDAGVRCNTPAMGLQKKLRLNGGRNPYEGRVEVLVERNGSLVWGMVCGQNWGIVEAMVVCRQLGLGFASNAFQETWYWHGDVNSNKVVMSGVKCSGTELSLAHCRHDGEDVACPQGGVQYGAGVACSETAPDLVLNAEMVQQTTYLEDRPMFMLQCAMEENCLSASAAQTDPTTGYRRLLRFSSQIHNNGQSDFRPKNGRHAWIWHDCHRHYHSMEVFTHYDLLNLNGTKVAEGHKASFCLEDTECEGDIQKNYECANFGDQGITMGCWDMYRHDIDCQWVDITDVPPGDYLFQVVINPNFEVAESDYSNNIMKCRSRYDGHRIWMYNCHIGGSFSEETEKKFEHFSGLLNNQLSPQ
In words: SEC-MALS; Superdex 200 10/300, 50 mM Tris pH 8.0, 150 mM NaCl, 0.01% sodium azide; fl-LOXL2 at concentrations from 0.08 to 1.6 uM; self-association. As to conditions: remark: other sources report otherwise. In general terms: Size exclusion chromatography separates by hydrodynamic size, large species first.

Series [2] deals with T1, full-length lysyl oxidase-like 2 …. Briefly: native gel or EMSA; Native PAGE, NativePAGE 4 to 16% Bis-Tris gels, 125 V for 2 h; self-association of purified LOXL2 forms. As to conditions: remark: other sources report otherwise.
The target is the same in series [3]. In words: AUC; Sedimentation velocity, 20 °C, 40,000 RPM, 50 mM HEPES pH 8.0, fl-LOXL2 at 0.88, 0.30 and 0.088 mg/mL, c(s) model of SEDFIT; self-association. As to conditions: remark: other sources report otherwise.
Series [4] concerns the molecule itself. Briefly: native gel or EMSA; Native PAGE, NativePAGE 4 to 16% Bis-Tris gels, 125 V for 2 h; self-association of purified LOXL2 forms.

B1: full-length lysyl oxidase-like 2 (fl-LOXL2), wild type, Q9Y4K0 26-774 (enzyme)
chain: QYDSWPHYPEYFQQPAPEYHQPQAPANVAKIQLRLAGQKRKHSEGRVEVYYDGQWGTVCDDDFSIHAAHVVCRELGYVEAKSWTASSSYGKGEGPIWLDNLHCTGNEATLAACTSNGWGVTDCKHTEDVGVVCSDKRIPGFKFDNSLINQIENLNIQVEDIRIRAILSTYRKRTPVMEGYVEVKEGKTWKQICDKHWTAKNSRVVCGMFGFPGERTYNTKVYKMFASRRKQRYWPFSMDCTGTEAHISSCKLGPQVSLDPMKNVTCENGLPAVVSCVPGQVFSPDGPSRFRKAYKPEQPLVRLRGGAYIGEGRVEVLKNGEWGTVCDDKWDLVSASVVCRELGFGSAKEAVTGSRLGQGIGPIHLNEIQCTGNEKSIIDCKFNAESQGCNHEEDAGVRCNTPAMGLQKKLRLNGGRNPYEGRVEVLVERNGSLVWGMVCGQNWGIVEAMVVCRQLGLGFASNAFQETWYWHGDVNSNKVVMSGVKCSGTELSLAHCRHDGEDVACPQGGVQYGAGVACSETAPDLVLNAEMVQQTTYLEDRPMFMLQCAMEENCLSASAAQTDPTTGYRRLLRFSSQIHNNGQSDFRPKNGRHAWIWHDCHRHYHSMEVFTHYDLLNLNGTKVAEGHKASFCLEDTECEGDIQKNYECANFGDQGITMGCWDMYRHDIDCQWVDITDVPPGDYLFQVVINPNFEVAESDYSNNIMKCRSRYDGHRIWMYNCHIGGSFSEETEKKFEHFSGLLNNQLSPQ
modifications: here or on the partner: lysine tyrosylquinone (LTQ) cofactor (precursor residues Lys653 and Tyr689), Cu2+ bound; N-glycans (N-glycosylation sites Asn288, Asn455, Asn644); lysine tyrosylquinone (LTQ) cofactor (precursor residues Lys653 and Tyr689), Cu2+ bound; N-glycans (N-glycosylation sites Asn288, Asn455, Asn644)
In the case of B1, the stoichiometry N in series [1] is 2 and 4. The stoichiometry N in series [2] is 2 and 4. Moreover, in series [3], the percent of dimer stood at 11.6%; the percent of monomer was 83.6%; the percent of tetramer and pentamer together is 4.7%; the stoichiometry N was 4 and 5 and 2.

B2: K317R-LOXL2, full-length form (furin-cleavage site engineered) (enzyme, UniProt Q9Y4K0 26-774, looked up)
chain: QYDSWPHYPEYFQQPAPEYHQPQAPANVAKIQLRLAGQKRKHSEGRVEVYYDGQWGTVCDDDFSIHAAHVVCRELGYVEAKSWTASSSYGKGEGPIWLDNLHCTGNEATLAACTSNGWGVTDCKHTEDVGVVCSDKRIPGFKFDNSLINQIENLNIQVEDIRIRAILSTYRKRTPVMEGYVEVKEGKTWKQICDKHWTAKNSRVVCGMFGFPGERTYNTKVYKMFASRRKQRYWPFSMDCTGTEAHISSCKLGPQVSLDPMKNVTCENGLPAVVSCVPGQVFSPDGPSRFRRAYKPEQPLVRLRGGAYIGEGRVEVLKNGEWGTVCDDKWDLVSASVVCRELGFGSAKEAVTGSRLGQGIGPIHLNEIQCTGNEKSIIDCKFNAESQGCNHEEDAGVRCNTPAMGLQKKLRLNGGRNPYEGRVEVLVERNGSLVWGMVCGQNWGIVEAMVVCRQLGLGFASNAFQETWYWHGDVNSNKVVMSGVKCSGTELSLAHCRHDGEDVACPQGGVQYGAGVACSETAPDLVLNAEMVQQTTYLEDRPMFMLQCAMEENCLSASAAQTDPTTGYRRLLRFSSQIHNNGQSDFRPKNGRHAWIWHDCHRHYHSMEVFTHYDLLNLNGTKVAEGHKASFCLEDTECEGDIQKNYECANFGDQGITMGCWDMYRHDIDCQWVDITDVPPGDYLFQVVINPNFEVAESDYSNNIMKCRSRYDGHRIWMYNCHIGGSFSEETEKKFEHFSGLLNNQLSPQ
notes: Lysyl oxidase-like 2 (LOXL2), K317R mutant, the full-length species in the K317R-LOXL2 lane of the native gel; the bands at ~175 and ~340 kDa are ascribed to its full-length form; also called K317R mutant
On to B2, for which the “stoichiometry N” value in series [4] was 2 and 4.

B3: R314A/R316A/K317Q-LOXL2 (AAQ-LOXL2, a PACE4 cleavage site null mutant), full length (enzyme, UniProt Q9Y4K0 26-774, looked up)
chain: QYDSWPHYPEYFQQPAPEYHQPQAPANVAKIQLRLAGQKRKHSEGRVEVYYDGQWGTVCDDDFSIHAAHVVCRELGYVEAKSWTASSSYGKGEGPIWLDNLHCTGNEATLAACTSNGWGVTDCKHTEDVGVVCSDKRIPGFKFDNSLINQIENLNIQVEDIRIRAILSTYRKRTPVMEGYVEVKEGKTWKQICDKHWTAKNSRVVCGMFGFPGERTYNTKVYKMFASRRKQRYWPFSMDCTGTEAHISSCKLGPQVSLDPMKNVTCENGLPAVVSCVPGQVFSPDGPSAFAQAYKPEQPLVRLRGGAYIGEGRVEVLKNGEWGTVCDDKWDLVSASVVCRELGFGSAKEAVTGSRLGQGIGPIHLNEIQCTGNEKSIIDCKFNAESQGCNHEEDAGVRCNTPAMGLQKKLRLNGGRNPYEGRVEVLVERNGSLVWGMVCGQNWGIVEAMVVCRQLGLGFASNAFQETWYWHGDVNSNKVVMSGVKCSGTELSLAHCRHDGEDVACPQGGVQYGAGVACSETAPDLVLNAEMVQQTTYLEDRPMFMLQCAMEENCLSASAAQTDPTTGYRRLLRFSSQIHNNGQSDFRPKNGRHAWIWHDCHRHYHSMEVFTHYDLLNLNGTKVAEGHKASFCLEDTECEGDIQKNYECANFGDQGITMGCWDMYRHDIDCQWVDITDVPPGDYLFQVVINPNFEVAESDYSNNIMKCRSRYDGHRIWMYNCHIGGSFSEETEKKFEHFSGLLNNQLSPQ
notes: Lysyl oxidase-like 2 (LOXL2), full-length form with the PACE4 cleavage site mutated (text: R314A/R316A/K317Q); Secreted protein; also called R315A/R316A/K317Q mutant form of LOXL2
Turning to B3, the “stoichiometry N” value in series [4] was 2 and 4.

In general, stoichiometry N refers to the number of molecules, sites or subunits per partner or assembly.
